Results from paper PMC6899989.

Key:
[1] = molecular target: full-length RpBphP1, SAXS sample (gene PCR amplified from Rps. palustris strain 2.1.6, in pET28a) (Rhodopseudomonas palustris); test: SAXS; 5 mM Tris pH 8, 1 and 4 mg/mL, 8 °C; dark-purified protein measured in darkness (Pfr state); mass by SAXS MoW2, ab-initio envelopes
[2] = molecular target: full-length RpBphP1, SAXS sample (gene PCR amplified from Rps. palustris strain 2.1.6, in pET28a) (Rhodopseudomonas palustris); test: SAXS; 5 mM Tris pH 8, 1 and 4 mg/mL, 8 °C; continuous illumination with 760 nm light (Pr state); mass by SAXS MoW2, ab-initio envelopes
[3] = molecular target: N-terminal His6-tagged RpPpsR2 (gene repressor from Rhodopseudomonas palustris) (Rhodopseudomonas palustris); test: pull-down; Ni(II)-affinity chromatography on 1 mL His-Trap HP; His6-RpPpsR2 mixed 1:4 with untagged RpBphP1 or RpBphP1ΔHOS; illuminated for 5 min with 760 nm light (Pr state); imidazole elution monitored at 280 and 400 nm; SDS/PAGE scan of peak BP
[4] = molecular target: N-terminal His6-tagged RpPpsR2 (gene repressor from Rhodopseudomonas palustris) (Rhodopseudomonas palustris); test: SEC; RpPpsR2 in 5 mM DTT
[5] = molecular target: RpBphP1, sample used for size exclusion chromatography (synthesised gene) (Rhodopseudomonas palustris); test: SEC; Superose 12 10/300 GL, 200 μL at 1-4 mg/mL, 5 mM TrisHCl pH 8, 10 mM NaCl; after illumination with 760 nm light for 5 min (Pr state)
[6] = molecular target: RpBphP1, sample used for size exclusion chromatography (synthesised gene) (Rhodopseudomonas palustris); test: SEC; Superose 12 10/300 GL, 200 μL at 1-4 mg/mL, 5 mM TrisHCl pH 8, 10 mM NaCl; in the dark (Pfr state)

In the case of “full-length RpBphP1, SAXS sample (gene PCR amplified from Rps. palustris strain 2.1.6, in pET28a) (natural protein)”, the stoichiometry N [1] is reported as 2 and the stoichiometry N [2] is reported as 2.
For “untagged full-length RpBphP1 (bacteriophytochrome from Rhodopseudomonas palustris) (natural protein)”, the stoichiometry N (RpBphP1 per RpPpsR2) [3] was 2.
Substance “N-terminal His6-tagged RpPpsR2 (gene repressor from Rhodopseudomonas palustris) (natural protein)” has a stoichiometry N [4] of 2.
“RpBphP1, sample used for size exclusion chromatography (synthesised gene) (natural protein)” gave a stoichiometry N [5] of 2 and a stoichiometry N [6] of 2.
